The record followed here is paper PMC7739888, “Induction of the cydAB Operon Encoding the bd Quinol Oxidase Under Respiration-Inhibitory Conditions by the Major cAMP Receptor Protein MSMEG_6189 in Mycobacterium smegmatis”.

This series concerns the target T1, Crp1 (MSMEG_6189), C-terminal His6 (UniProt A0R5H1 1-224).
T1 sequence: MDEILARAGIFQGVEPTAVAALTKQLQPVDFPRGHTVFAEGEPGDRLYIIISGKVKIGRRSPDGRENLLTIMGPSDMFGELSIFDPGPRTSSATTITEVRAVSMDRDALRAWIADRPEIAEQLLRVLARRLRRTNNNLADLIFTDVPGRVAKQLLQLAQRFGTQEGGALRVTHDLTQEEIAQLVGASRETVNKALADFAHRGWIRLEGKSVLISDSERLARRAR
Put plainly: EMSA; 200 uM cAMP; binding virtually abolished; EMSA: 20 mM Tris-HCl pH 8.0, 100 mM NaCl, 2.5 mM MgCl2, 1 mM EDTA, 1 mM DTT, 50 ug/ml BSA, 10% glycerol, 25 C 20 min; footprinting: 20 mM Tris-HCl pH 8.0, 0.2 mM MgCl2, 2.1 mM KCl, 0.04 mM DTT, 11.1% glycerol, 25 C, 0.15-0.6 uM Crp1. Particulars: protein: recombinant; tags: C-terminal His6; chain copies: 2; label: none (SYBR Green stain); blunt.

B1: M3 (CBS1+CBS2 mutant) 99-bp (dsDNA)
DNA 1: GCAGCGGGGTCAGGAAGCTCGGCGCCGCCTTCCCGACCGGCTTTTCATCGGCGCCTCCCCCCAGCTAACCTTTCGCGCTACCTGCGTCGATCTCCTGGC
DNA 2: GCCAGGAGATCGACGCAGGTAGCGCGAAAGGTTAGCTGGGGGGAGGCGCCGATGAAAAGCCGGTCGGGAAGGCGGCGCCGAGCTTCCTGACCCCGCTGC
For the molecule B1, the binding result was “no binding”.
